Laboratory results taken from patent publication US20210332115A1 (Sanofi, published 2021).
Residue numbers refer to the chain shown, from its start.

B1: VH1/Vκ2 (antibody, V domains shown)
VH: EVQLVESGGGLVKPGGSLRLSCAASGFTFSNYAMSWVRQAPGKGLEWVATISNRGSYTYYPDSVKGRFTISRDNAKNSLYLQMSSLRSEDTALYYCARERPMDYWGQGTSVTVSS
VL: DIVMTQSPSTLSASVGDRVTITCKASQDVGTAVAWYQQKPGQPPKLLIYWASTRHTGVPDRFTGSGSGTDFTLTISSLQAEDFAVYFCHQHSSNPLTFGQGTKLEIK
B2: VH1/Vκ0 (control) (antibody, V domains shown)
VH: B1 VH
VL: DIVMTQSHKFMSTSVGDRVSITCKASQDVGTAVAWYQQKPGQSPKLLIYWASTRHTGVPDRFTGSGSGTDFTLTITNVQSEDLAVYFCHQHSSNPLTFGAGTKLELK
B3: VH3/Vκ2 (antibody, V domains shown)
VH: B1 VH with P61A, S84N, S88A, S110L
VL: B1 VL
B4: VH2/Vκ2 (antibody, V domains shown)
VH: B1 VH with S84N, S88A, S110L
VL: B1 VL
B5: VH2/Vκ4 (antibody, V domains shown)
VH: B1 VH with S84N, S88A, S110L
VL: B1 VL with V3Q, K24R, T63S, F87Y
B6: VH1/Vκ3 (antibody, V domains shown)
VH: B1 VH
VL: B1 VL with V3Q, T63S
B7: VH3/Vκ5 (antibody, V domains shown)
VH: B1 VH with P61A, S84N, S88A, S110L
VL: B1 VL with V3Q, K24R, T63S, V85T, F87Y
B8: VH3/Vκ4 (antibody, V domains shown)
VH: B1 VH with P61A, S84N, S88A, S110L
VL: B1 VL with V3Q, K24R, T63S, F87Y
B9: VH2/Vκ5 (antibody, V domains shown)
VH: B1 VH with S84N, S88A, S110L
VL: B1 VL with V3Q, K24R, T63S, V85T, F87Y
B10: VH3/Vκ3 (antibody, V domains shown)
VH: B1 VH with P61A, S84N, S88A, S110L
VL: B1 VL with V3Q, T63S
B11: VH2/Vκ3 (antibody, V domains shown)
VH: B1 VH with S84N, S88A, S110L
VL: B1 VL with V3Q, T63S
B12: VH1/Vκ5 (antibody, V domains shown)
VH: B1 VH
VL: B1 VL with V3Q, K24R, T63S, V85T, F87Y
B13: VH1/Vκ1 (antibody, V domains shown)
VH: B1 VH
VL: B1 VL with T10F, A80S
B14: VH1/Vκ4 (antibody, V domains shown)
VH: B1 VH
VL: B1 VL with V3Q, K24R, T63S, F87Y
B15: VH3/Vκ1 (antibody, V domains shown)
VH: B1 VH with P61A, S84N, S88A, S110L
VL: B1 VL with T10F, A80S
B16: VH2/Vκ1 (antibody, V domains shown)
VH: B1 VH with S84N, S88A, S110L
VL: B1 VL with T10F, A80S
B17: VH0/Vκ1 (control) (antibody, V domains shown)
VH: B1 VH with G10A, R19K, A40T, G42E, G44R, S78T
VL: B1 VL with T10F, A80S
B18: VH5/Vκ0 (antibody, V domains shown)
VH: B1 VH with A40T, G42E, G44R
VL: B2 VL
notes: Control antibody of the redesign round; cloned into the appropriate expression vector (IgG4v1 and kappa were used in the first round), HEK EBNA supernatant
B19: VH5/Vκ6 (antibody, V domains shown)
VH: B1 VH with A40T, G42E, G44R
VL: B1 VL with T10F, Q42K, P43A, A80S
notes: Redesigned variant; cloned into the appropriate expression vector (IgG4v1 and kappa were used in the first round), HEK EBNA supernatant
B20: VH7/Vκ6 (antibody, V domains shown)
VH: B1 VH with A40T, G42E, G44R, S84N, S88A, S110L
VL: B1 VL with T10F, Q42K, P43A, A80S
notes: as for B19
B21: VH0/Vκ6 (antibody, V domains shown)
VH: B1 VH with G10A, R19K, A40T, G42E, G44R, S78T
VL: B1 VL with T10F, Q42K, P43A, A80S
notes: as for B18
B22: VH5/Vκ7 (antibody, V domains shown)
VH: B1 VH with A40T, G42E, G44R
VL: B1 VL with V3Q, Q42K, P43A, T63S
notes: as for B19
B23: VH0/Vκ7 (antibody, V domains shown)
VH: B1 VH with G10A, R19K, A40T, G42E, G44R, S78T
VL: B1 VL with V3Q, Q42K, P43A, T63S
notes: as for B18
B24: VH0/Vκ3 (antibody, V domains shown)
VH: B1 VH with G10A, R19K, A40T, G42E, G44R, S78T
VL: B1 VL with V3Q, T63S
notes: constant regions not restated, the humanisation used IgG4v1 heavy chain and kappa light chain vectors

Target: T1, Homo sapiens factor Bb protein (human, UniProt P00751 260-764)
T1 construct: Bought from CompTech (A155); also called complement factor Bb; human factor Bb
Assay: SPR single cycle kinetics; ratio against VH0/Vκ0
Method: (§1) In order to assess the binding of all humanized variants, single cycle kinetic analysis was performed on supernatants from transfected cell cultures. […] All single cycle kinetic experiments were run at 25° C. with HBS-P+running buffer (pH 7. 4) (GE Healthcare, Little Chalfont, UK).
(§2) Antibodies were diluted in running buffer to a final concentration of 1 μg/ml, based on concentrations assessed by ELISA titer. At the start of each cycle, antibodies were loaded onto Fc2, Fc3 and Fc4 of the Protein A chip (GE Healthcare, Little Chalfont, UK). IgGs were captured at a flow rate of 10 μl/min to give an immobilization level (RL) of ˜63 RU, the theoretical value to obtain an Rmax of ˜50 RU. The surface was then allowed to stabilize. Single cycle kinetic data was obtained with factor Bb (CompTech, Tyler, USA) as the analyte at a flow rate of 30 μl/min to minimize any potential mass transport limitations. Multiple repeats with the reference chimeric antibody were performed to check the stability of the surface and analyte over the kinetic cycles. The signal from the reference channel Fc1 (no antibody) was subtracted from that of Fc2, Fc3 and Fc4 to correct for differences in non-specific binding to a reference surface. A four point, two-fold dilution range from 0. 78 nM to 6. 25 nM factor Bb without regeneration between each concentration was used. The association phase for the four injections of increasing concentrations of factor Bb was monitored for 200 seconds each time and a single dissociation phase was measured for 200 seconds following the last injection of factor Bb. Regeneration of the Protein A surface was conducted using two injections of 10 mM glycine-HCL pH 1. 5.
(§3) The sensorgrams and fitted data for the single cycle kinetics are shown in FIGS. 1A-1D and the kinetic parameters measured for the interaction of factor Bb with each antibody are shown in Table 7. The relative KD was calculated by dividing the KD of the VH0/Vκ0 reference antibody by that of the humanized variant assayed in the same experiment.

T1 sequence (P00751 260-764 limits assumed): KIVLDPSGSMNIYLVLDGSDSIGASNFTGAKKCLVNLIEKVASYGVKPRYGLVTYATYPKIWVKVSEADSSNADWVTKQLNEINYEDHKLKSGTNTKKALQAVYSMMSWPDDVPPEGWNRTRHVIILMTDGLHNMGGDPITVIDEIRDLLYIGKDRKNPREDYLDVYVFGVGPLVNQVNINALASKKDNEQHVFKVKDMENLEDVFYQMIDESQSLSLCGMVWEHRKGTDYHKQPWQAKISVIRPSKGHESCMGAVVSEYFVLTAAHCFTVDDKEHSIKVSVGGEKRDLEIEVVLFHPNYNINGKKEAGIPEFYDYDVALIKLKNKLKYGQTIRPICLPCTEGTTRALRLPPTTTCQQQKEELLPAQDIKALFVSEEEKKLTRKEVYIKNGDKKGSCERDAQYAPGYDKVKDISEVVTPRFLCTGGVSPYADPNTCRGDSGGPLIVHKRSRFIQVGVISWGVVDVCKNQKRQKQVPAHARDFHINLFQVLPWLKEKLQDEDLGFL

Binder | Relative KD
B1 | 2.97
B2 | 1.76
B3 | 9.09
B4 | 7.9
B5 | 6.19
B6 | 2.22
B7 | 8.98
B8 | 9.83
B9 | 9.43
B10 | 8.47
B11 | 6.93
B12 | 5.09
B13 | 2.85
B14 | 3.7
B15 | 7.9
B16 | 11.8
B17 | 1.52

Target: T1, Homo sapiens factor Bb protein
Assay: SPR single cycle kinetics; ratio against VH0/Vκ0
Remark: another data set of the same source
Method: All single cycle kinetic experiments were run at 25° C. with HBS-P+running buffer (pH 7. 4) (GE Healthcare, Little Chalfont, UK).
as §2
Single cycle kinetics using cell culture supernatants were performed as described above. […] The relative KD was calculated by dividing the KD of the VH0/Vκ0 reference antibody by that of the humanized variant assayed in the same experiment.

Binder | Relative KD
B18 | 235
B19 | 73.5
B20 | 10.2
B21 | 1.34
B22 | 294
B23 | 1.19
B24 | 1.28

Target: T1, Homo sapiens factor Bb protein
Assay: SPR single cycle kinetics, IgG on Protein A chip, factor Bb analyte
Method: as §1, §2, §3

Binder | Kd [nM] | koff [s⁻¹] | kon [M⁻¹ s⁻¹]
B1 | 5.22 | 0.00251 | 481000
B2 | 3.09 | 0.00116 | 376000
B3 | 16 | 0.00377 | 236000
B4 | 13.9 | 0.00326 | 234000
B5 | 10.9 | 0.00368 | 339000
B6 | 3.9 | 0.00263 | 675000
B7 | 15.8 | 0.00451 | 285000
B8 | 17.3 | 0.0046 | 267000
B9 | 16.6 | 0.00375 | 225000
B10 | 14.9 | 0.00329 | 220000
B11 | 12.2 | 0.00307 | 252000
B12 | 8.96 | 0.00201 | 225000
B13 | 5.01 | 0.00287 | 574000
B14 | 6.52 | 0.00294 | 451000
B15 | 13.9 | 0.00404 | 291000
B16 | 20.7 | 0.00373 | 180000
B17 | 2.68 | 0.00157 | 586000

Target: T1, Homo sapiens factor Bb protein
Assay: as above
Remark: another data set of the same source
Method: as §1, §2
Single cycle kinetics using cell culture supernatants were performed as described above.

Binder | Kd [nM] | koff [s⁻¹] | kon [M⁻¹ s⁻¹]
B18 | 416 | 0.00145 | 3490
B19 | 130 | 0.0173 | 133000
B20 | 18 | 0.00303 | 168000
B21 | 2.37 | 0.00126 | 534000
B22 | 521 | 0.00166 | 3200
B23 | 2.11 | 0.00105 | 496000
B24 | 2.27 | 0.00128 | 563000
